Assay [1] concerns the target WT HP1α (human heterochromatin protein 1 alpha, unmodified) (human). The experiment in a line: AUC.
Assay [2] concerns the target Phos-HP1α (HP1α co-expressed with CKII, phosphorylated in the N-terminus and hinge) (human). The experiment in a line: native MS.

In assay [1], “WT HP1α (human heterochromatin protein 1 alpha, unmodified) (natural protein)” came in with a dissociation constant Kd of 1120 nM.

As to “Phos-HP1α (HP1α co-expressed with CKII, phosphorylated in the N-terminus and hinge) (natural protein)”, the stoichiometry N in assay [2] was 2.

One may read the Kd as the constant that tells how readily two partners part at equilibrium. Low readings indicate a tighter complex, high ones a looser complex. By stoichiometry N is commonly meant a count of units in the complex or per binding partner.

The values above are taken from publication PMC5606208.
